Biological target: T1, recombinant human FcRn (Sino Biological) (human, UniProt P55899 24-297; P61769 21-119)
T1 construct: the two chains are those of natural FcRn
Assay: ELISA at pH 6.0: plate coated with recombinant human FcRn, antibody titrated, goat anti-human Fc-HRP, OD650
Procedure: FcRn binding was evaluated using an enzyme linked immunoassay (ELISA). Briefly, 96-well ELISA plates were coated with of recombinant human FcRn (Sino Biological, Inc, Beijing, China) in 1× PBS (pH 6.0) coating buffer. Subsequently, the plates were washed and blocked with ELISA blocking buffer. […] After washing to remove unbound antibodies, the bound antibodies were detected with horseradish peroxidase (HRP) conjugated goat anti-human Fc-specific polyclonal antibody (Jackson ImmunoResearch, West Grove, PA). After washing to remove unbound detection antibody, a slow kinetic substrate solution of tetramethylbenzidine (TMB) was added to the wells where color develops in proportion to the amount of testing samples. The optical density (OD) of the color was measured at 650 nm and was used for determination of the amount of testing samples bound to FcRn. Detectable binding of antibodies over the range of test concentrations was analyzed using the one-site binding, nonlinear regression analysis with GraphPad Prism.

| binding result | Binder |
| --- | --- |
| binds | Anti-EGFR Mab No. 3, L234A, L235A, L328C (antibody, human IgG1, L234A L235A, Fc variant; also called Anti-EGFR Ab No. 3 L234A, L235A, L328C; triple mutant) heavy: QVQLQQSGAEVKKPGSSVKVSCKASGYTFTNYYIYWVRQAPGQGLEWIGGINPTSGGSNFNEKFKTRVTITADESSTTAYMELSSLRSEDTAFYFCTRQGLWFDSDGRGFDFWGQGTTVTVSSASTKGPSVFPLAPSSKSTSGGTAALGCLVKDYFPEPVTVSWNSGALTSGVHTFPAVLQSSGLYSLSSVVTVPSSSLGTQTYICNVNHKPSNTKVDKRVEPKSCDKTHTCPPCPAPEAAGGPSVFLFPPKPKDTLMISRTPEVTCVVVDVSHEDPEVKFNWYVDGVEVHNAKTKPREEQYNSTYRVVSVLTVLHQDWLNGKEYKCKVSNKACPAPIEKTISKAKGQPREPQVYTLPPSREEMTKNQVSLTCLVKGFYPSDIAVEWESNGQPENNYKTTPPVLDSDGSFFLYSKLTVDKSRWQQGNVFSCSVMHEALHNHYTQKSLSLSPGK light: DIQMTQSPSSLSASVGDRVTITCRSSQNIVHSNGNTYLDWYQQTPGKAPKLLIYKVSNRFSGVPSRFSGSGSGTDFTFTISSLQPEDIATYYCFQYSHVPWTFGQGTKLQITREVAAPSVFIFPPSDEQLKSGTASVVCLLNNFYPREAKVQWKVDNALQSGNSQESVTEQDSKDSTYSLSSTLTLSKADYEKHKVYACEVTHQGLSSPVTKSFNRGEC |
| binds | Anti-EGFR Mab No. 3, L328C (antibody, human IgG1, Fc variant; also called Anti-EGFR Ab No. 3 L328C; single mutant) heavy: not shown light: DIQMTQSPSSLSASVGDRVTITCRSSQNIVHSNGNTYLDWYQQTPGKAPKLLIYKVSNRFSGVPSRFSGSGSGTDFTFTISSLQPEDIATYYCFQYSHVPWTFGQGTKLQITREVAAPSVFIFPPSDEQLKSGTASVVCLLNNFYPREAKVQWKVDNALQSGNSQESVTEQDSKDSTYSLSSTLTLSKADYEKHKVYACEVTHQGLSSPVTKSFNRGEC |
